Two molecules from PMC10403546 (Nature Communications, 2023) can be followed below.

As a reminder, the Kd is the free concentration of one partner at which half of the binding sites on the other are occupied at equilibrium, for simple one-to-one binding. The low end stands for a tighter complex, the high end for a looser complex.

Assay in all cases: SPR
Holding throughout (settings): both partners purified

For assay [1], the target named is T1, X18 UFO (CRF01_AE Env), wild type, for SPR (HIV-1 BJOX018000.e12 (X18, CRF01_AE), stabilised).
T1 construct: source: FreeStyle 293F, transient transfection (PEI), purified (GNL resin, SEC)

Assay [2] has as its target T2, Q769 UFO (subtype A Env of Q769_d22) (HIV-1 Q769_d22 (subtype A), UniProt Q8JDJ1, stabilised).
T2 construct: source: FreeStyle 293F, transient transfection (PEI), purified (GNL resin, SEC)

The target of assay [3] is T3, BG505 SOSIP-His (subtype A Env trimer) (HIV-1 BG505 (subtype A), UniProt Q2N0S6, stabilised).
T3 construct: copies: 3 + 3

In assay [4] the target is T4, X18 SOSIP-His (CRF01_AE Env trimer in SOSIP design) (HIV-1 BJOX018000.e12 (X18, CRF01_AE), UniProt A0A0E3EAY4, stabilised).
T4 construct: copies: 3 + 3

Assay [5] deals with T5, X16 SOSIP-His (CRF07_BC Env trimer in SOSIP design) (HIV-1 BJOX016000.e15 (X16, CRF07_BC), UniProt A0A0E3EAD6, stabilised).
T5 construct: copies: 3 + 3

B1: bNAb F6 Fab (for SPR) (Fab, V domains shown)
VH: QVQLQQWGTGLLKPSETLSLTCAVYGVSLRGYYWTWIRQSPKKGLEWIGEIDEIGRTKYSQSLRSRATLSIDTSKKQFSLRLTSVTAADMATYYCARWRLMMVDEVTRHGMDVWSQGTMVTVSS
VL: DIVMTQSPLSLSVAPGEAASISCRSTQSLLNRNGDNYLEWYLRRPGRSPQLLIYLGSERALGVPDRFSGSGSGRDFTLKISRVEAQDVGTYYCLQTRQGAFTFGQGTKLEIK
For B1, binding in assay [1] was characterised by a dissociation constant (Kd) of 0.041 nM. Also, the binding result in assay [2] was “binds”.

B2: bNAb 8ANC195 Fab (for SPR) (Fab, V domains shown)
VH: QIHLVQSGTEVKKPGSSVTVSCKAYGVNTFGLYAVNWVRQAPGQSLEYIGQIWRWKSSASHHFRGRVLISAVDLTGSSPPISSLEIKDLTSDDTAVYFCTTTSTYDKWSGLHHDGVMAFSSWGQGTLISVSA
VL: DIQMTQSPSTLSASIGDTVRISCRASQSITGNWVAWYQQRPGKAPRLLIYRGAALLGGVPSRFSGSAAGTDFTLTIGNLQAEDFGTFYCQQYDTYPGTFGQGTKVEVK
Turning to B2, the binding result in assay [3], in assay [4] and in assay [5] was “binds” in each case.
